How the values were obtained:
E. italicus 2SL (Ei) = target: T1, E. italicus 2SL (Ei) (Enterococcus italicus, UniProt E6LDH5); assay: HPLC, […] nm, 2SNAC synthesis; assay type: biochemical; settings: 50 mM Tris-HCl pH 8.0, 21 °C, 4.0 mM NAC; synthesis direction; read-out: Kinetic parameter / Km
T1 construct: gene purB; full-length, N-terminal hexahistidine tag (pET28b), expressed in E. coli BL21-(DE3)-RIPL, Ni-NTA purified; tag removal not mentioned
T1 sequence (E6LDH5 1-455): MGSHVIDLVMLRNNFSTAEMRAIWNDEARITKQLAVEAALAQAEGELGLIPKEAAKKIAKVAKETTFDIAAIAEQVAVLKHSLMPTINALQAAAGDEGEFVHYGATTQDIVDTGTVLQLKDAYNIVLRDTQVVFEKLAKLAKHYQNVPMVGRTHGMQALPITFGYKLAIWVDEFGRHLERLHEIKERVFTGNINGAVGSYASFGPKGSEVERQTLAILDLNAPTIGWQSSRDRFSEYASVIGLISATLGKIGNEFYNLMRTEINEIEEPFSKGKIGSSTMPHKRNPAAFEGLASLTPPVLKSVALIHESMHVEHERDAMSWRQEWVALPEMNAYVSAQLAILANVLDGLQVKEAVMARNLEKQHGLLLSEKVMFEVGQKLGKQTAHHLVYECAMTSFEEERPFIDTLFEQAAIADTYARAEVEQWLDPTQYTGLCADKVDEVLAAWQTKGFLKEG

D. dadantii 2SL (Dd) = target: T2, D. dadantii 2SL (Dd) (Dickeya dadantii, UniProt E0SKP1); assay: HPLC, […] nm, 2SNAC synthesis; assay type: biochemical; settings: 50 mM Tris-HCl pH 8.0, 21 °C, 4.0 mM NAC; synthesis direction; read-out: Kinetic parameter / Km
T2 construct: gene Dda3937_00284; full-length, N-terminal hexahistidine tag (pET28b), expressed in E. coli BL21-(DE3)-RIPL, Ni-NTA purified; tag removal not mentioned
T2 sequence (E0SKP1 1-454): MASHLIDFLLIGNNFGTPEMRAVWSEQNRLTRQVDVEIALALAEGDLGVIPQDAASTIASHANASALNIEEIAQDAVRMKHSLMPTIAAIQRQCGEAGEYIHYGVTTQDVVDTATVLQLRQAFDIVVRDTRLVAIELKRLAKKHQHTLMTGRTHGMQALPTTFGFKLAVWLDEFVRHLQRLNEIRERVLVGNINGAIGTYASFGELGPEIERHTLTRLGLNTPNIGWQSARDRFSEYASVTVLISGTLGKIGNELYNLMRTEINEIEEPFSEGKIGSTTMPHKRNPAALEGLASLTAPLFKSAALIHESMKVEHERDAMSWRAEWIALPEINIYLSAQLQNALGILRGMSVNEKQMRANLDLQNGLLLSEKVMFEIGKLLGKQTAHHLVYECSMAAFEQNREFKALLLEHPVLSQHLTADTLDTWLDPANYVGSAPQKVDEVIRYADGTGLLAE

purified protein [1] = substrate: CC(=O)N[C@@H](CS)C(=O)O; assay: purified protein; assay type: biochemical, Enterococcus italicus; settings: 50 mM Tris-HCl pH 8.0, 21 °C, 30 mM fumarate, synthesis direction
purified protein [2] = substrate: CC(=O)N[C@@H](CSC(CC(=O)O)C(=O)O)C(=O)O; assay: purified protein; assay type: biochemical, Enterococcus italicus; settings: 100 mM Tris-HCl pH 8.0, 21 °C, 40 mM glutamate, 2 mM NAD+, breakdown direction
purified protein [3] = substrate: N[C@@H](CS)C(=O)O; assay: purified protein; assay type: biochemical, Enterococcus italicus; settings: 50 mM Tris-HCl pH 8.0, 21 °C, 30 mM fumarate, synthesis direction
purified protein [4] = substrate: N[C@@H](CSC(CC(=O)O)C(=O)O)C(=O)O; assay: purified protein; assay type: biochemical, Enterococcus italicus; settings: 100 mM Tris-HCl pH 8.0, 21 °C, 40 mM glutamate, 2 mM NAD+, breakdown direction
purified protein [5] = substrate: CC(=O)N[C@@H](CS)C(=O)O; assay: purified protein; assay type: biochemical, Dickeya dadantii; settings: 50 mM Tris-HCl pH 8.0, 21 °C, 30 mM fumarate, synthesis direction
purified protein [6] = substrate: CC(=O)N[C@@H](CSC(CC(=O)O)C(=O)O)C(=O)O; assay: purified protein; assay type: biochemical, Dickeya dadantii; settings: 100 mM Tris-HCl pH 8.0, 21 °C, 40 mM glutamate, 2 mM NAD+, breakdown direction
purified protein [7] = substrate: N[C@@H](CS)C(=O)O; assay: purified protein; assay type: biochemical, Dickeya dadantii; settings: 50 mM Tris-HCl pH 8.0, 21 °C, 30 mM fumarate, synthesis direction
purified protein [8] = substrate: N[C@@H](CSC(CC(=O)O)C(=O)O)C(=O)O; assay: purified protein; assay type: biochemical, Dickeya dadantii; settings: 100 mM Tris-HCl pH 8.0, 21 °C, 40 mM glutamate, 2 mM NAD+, breakdown direction

O=C(O)/C=C/C(=O)O [fumarate]
Km (E. italicus 2SL (Ei)): 230 ± 20 µM | Km (D. dadantii 2SL (Dd)): 3240 ± 300 µM

B1: E. italicus 2SL (Ei) (Enterococcus italicus DSM 15952) (protein)
chain: T1 sequence (E6LDH5 1-455)
notes: full-length, N-terminal hexahistidine tag (pET28b), expressed in E. coli BL21-(DE3)-RIPL, Ni-NTA purified; tag removal not mentioned
Km (purified protein [1]): 390 ± 30 µM | Vmax (purified protein [1]): 105 µmol/min/mg | kcat (purified protein [1]): 92.1 ± 7.1 s⁻¹ | kcat/Km (purified protein [1]): 236000 M⁻¹ s⁻¹ | Km (purified protein [2]): 1400 ± 100 µM | Vmax (purified protein [2]): 2.42 µmol/min/mg | kcat (purified protein [2]): 2.12 ± 0.21 s⁻¹ | kcat/Km (purified protein [2]): 1510 M⁻¹ s⁻¹ | Km (purified protein [3]): 17800 ± 3600 µM | Vmax (purified protein [3]): 11.9 µmol/min/mg | kcat (purified protein [3]): 10.4 ± 1.5 s⁻¹ | kcat/Km (purified protein [3]): 580 M⁻¹ s⁻¹ | Km (purified protein [4]): 10700 ± 2300 µM | Vmax (purified protein [4]): 0.058 µmol/min/mg | kcat (purified protein [4]): 0.051 ± 0.004 s⁻¹ | kcat/Km (purified protein [4]): 4.7 M⁻¹ s⁻¹

B2: D. dadantii 2SL (Dd) (Dickeya dadantii 3937) (protein)
chain: T2 sequence (E0SKP1 1-454)
notes: as for B1
Km (purified protein [5]): 690 ± 50 µM | Vmax (purified protein [5]): 27.6 µmol/min/mg | kcat (purified protein [5]): 24.2 ± 3.7 s⁻¹ | kcat/Km (purified protein [5]): 35000 M⁻¹ s⁻¹ | Km (purified protein [6]): 1200 ± 220 µM | Vmax (purified protein [6]): 0.4 µmol/min/mg | kcat (purified protein [6]): 0.35 ± 0.05 s⁻¹ | kcat/Km (purified protein [6]): 290 M⁻¹ s⁻¹ | Km (purified protein [7]): 19000 ± 1900 µM | Vmax (purified protein [7]): 11.1 µmol/min/mg | kcat (purified protein [7]): 9.7 ± 0.4 s⁻¹ | kcat/Km (purified protein [7]): 510 M⁻¹ s⁻¹ | Km (purified protein [8]): 12300 ± 1100 µM | Vmax (purified protein [8]): 0.069 µmol/min/mg | kcat (purified protein [8]): 0.06 ± 0.004 s⁻¹ | kcat/Km (purified protein [8]): 4.9 M⁻¹ s⁻¹

— PMC9706529, “Identification of a S-(2-succino)cysteine breakdown pathway that uses a novel S-(2-succino) lyase” (The Journal of Biological Chemistry, 2022)
